Experimental data reported in publication PMC6189696, “Choline sulfatase from Ensifer (Sinorhizobium) meliloti: Characterization of the unmodified enzyme” (Biochemistry and Biophysics Reports, 2015).

Columns and labels:
[1] = biological target: T1, choline-O-sulfatase (COS) (Sinorhizobium meliloti, UniProt O69787); assay: isothermal titration calorimetry, multiple injections; format: biochemical; conditions: substrate inhibition constant, second site; 200 mM Tris-HCl pH 7.5, 500 mM NaCl, 25 °C; enzyme without FGly
T1 construct: gene betC; full length, C-terminal His6 tag kept, pET26b+, codon-optimized gene, E. coli BL21(DE3); 59 kDa, homodimer (123 kDa); active-site Cys54 unmodified (no formylglycine)
Description: (§1) isothermal titration calorimetry, multiple injections on choline-O-sulfatase (COS)

[2] = biological target: T1, choline-O-sulfatase (COS); assay: spectrophotometric pNPS hydrolysis, […] nm; format: biochemical
purified protein [3] = substrate: Cc1cc(=O)oc2cc(OS(=O)(=O)O)ccc12; assay: purified protein; format: biochemical, Sinorhizobium meliloti; conditions: 200 mM Tris-HCl pH 7.5, 500 mM NaCl, 25 °C, 1-20 mM substrate, no saturation reached, enzyme without FGly
purified protein [4] = substrate: O=[N+]([O-])c1ccc(OS(=O)(=O)O)cc1; assay: purified protein; format: biochemical, Sinorhizobium meliloti; conditions: 200 mM Tris-HCl pH 7.5, 500 mM NaCl, 25 °C, 1-80 mM substrate, no saturation reached, enzyme without FGly
[5] = substrate: C[N+](C)(C)CCOS(=O)(=O)[O-]; assay: isothermal titration calorimetry, multiple injections; format: biochemical, Sinorhizobium meliloti; conditions: 200 mM Tris-HCl pH 7.5, 500 mM NaCl, 25 °C, fit with substrate inhibition, enzyme without FGly
Description: as §1

[6] = biological target: the molecule itself; assay: SEC; analytical gel filtration on Superdex 200 10/300 GL, non-denaturing conditions, calibrated with Bio-Rad Gel Filtration Standard (1.35-670 kDa)

C[N+](C)(C)CCOS(=O)(=O)[O-] [choline-O-sulfate]
Ki (mM) ^a [1]: 11.4 ± 1.1 mM

C[N+](C)(C)CCO [choline]
Ki [2]: 57.8 mM

B1: Ensifer (Sinorhizobium) meliloti choline-O-sulfatase (enzyme, UniProt O69787 1-512, looked up)
chain: MTTGKPNILIIMVDQLNGKLFPDGPADFLHAPNLKALAKRSARFHNNYTSSPLCAPARASFMAGQLPSRTRVYDNAAEYQSSIPTYAHHLRRAGYYTALSGKMHFVGPDQLHGFEERLTTDIYPADFGWTPDYRKPGERIDWWYHNLGSVTGAGVAEITNQMEYDDEVAFLANQKLYQLSRENDDESRRPWCLTVSFTHPHDPYVARRKFWDLYEDCEHLTPEVGAIPLDEQDPHSQRIMLSCDYQNFDVTEENVRRSRRAYFANISYLDEKVGELIDTLTRTRMLDDTLILFCSDHGDMLGERGLWFKMNFFEGSARVPLMIAGPGIAPGLHLTPTSNLDVTPTLADLAGISLEEVRPWTDGVSLVPMVNGVERTEPVLMEYAAEASYAPLVAIREGKWKYVYCALDPEQLFDLEADPLELTNLAENPRGPVDQATLTAFRDMRAAHWDMEAFDAAVRESQARRWVVYEALRNGAYYPWDHQPLQKASERYMRNHMNLDTLEESKRYPRGE
notes: choline-O-sulfatase (betC gene product) of Ensifer (Sinorhizobium) meliloti, GenBank AAC13371.1; gene codon optimized for E. coli and subcloned in pET26b+; expected 59 kDa with the His6-tag; Active-site Cys54 is unmodified (no formylglycine) as expressed in E. coli; two of the six cysteines form a disulfide bridge; also called COS; choline sulfatase; source: E. coli BL21 (DE3), purified (His-Trap …)
Km (purified protein [3]): 11.8 ± 1.4 mM | kcat (purified protein [3]): 0.043 ± 0.007 s⁻¹ | kcat/Km (purified protein [3]): 3.64 ± 0.73 M⁻¹ s⁻¹ | Km (purified protein [4]): 75.8 ± 15.0 mM | kcat (purified protein [4]): 0.035 ± 0.004 s⁻¹ | kcat/Km (purified protein [4]): 0.46 ± 0.11 M⁻¹ s⁻¹ | Km [5]: 11.1 ± 1.0 mM | kcat [5]: 0.27 ± 0.02 s⁻¹ | kcat/Km [5]: 24.3 ± 2.84 M⁻¹ s⁻¹ | stoichiometry N [6]: 2
